The values that follow come from patent publication US20140356345.

The subject of data set [1] is T1, 33-mer gliadin peptide.
T1 sequence: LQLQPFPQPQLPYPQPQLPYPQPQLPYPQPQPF

Data set [2] deals with T2, 33-mer gliadin peptide.
T2 chain: T1 sequence

Consider pepsin, for which the “residual intact 33-mer (1-33) by HPLC-MS, Control T2h (pepsin alone, 1 mg/ml), pH 3” value in the data set on 33-mer gliadin peptide [1] was 95% residual.

B1: endopep-40 (protein)
chain: MSRRVTGTILGGLILAMVPFLSTAANAAPQAAPASVSHPFHHSCATVKPGRASCNALVRSDIAQSAATLAHQAAAPSGLSPANLQSAYKLPSSTAGSGQTVAIVDAYDAPTAEADLNVYRSQFGLGACTTANGCFKKVDQNGGTSYPRKDGGWAQEISLDLDMVSAVCPNCKIVLVEAKTNSFANLGTAENTAASLANVISNSYGGSDASDASYGSYYNHPGKAITVSSGDAGYGVEYPASSHYVTAVGGTSLRTASTSRGWSETAWSGAGSGCSAYNTALSGQSGLTGCSRRAVADVSAVADPATGVAVYDSTAYQGQSGWMVFGGTSVAAPIIGGVYGLAANAASIDNNYPYAHTSSLFDVTSGSNGTCTTTKWCTAGTGWDGPTGLGTPNGTGAF
As for B1, the “proteolysis of gliadin, SDS-PAGE, 5 uU enzyme, pH 3, 37 C” value with gliadin (Sigma G3375) is recorded as “cleaved ... into small peptides to almost complete digestion in 2 hours”. Also, in the data set with 33-mer gliadin peptide [2], the “33-mer disappearance by HPLC-MS, 9 uU enzyme, 2 h, pH 3” value is recorded as “complete 33-mer disappearance after 2 h at pH 3 (not shown)”; the “residual intact 33-mer (1-33) by HPLC-MS, T0” value was determined as 100% residual; the “residual intact 33-mer (1-33) by HPLC-MS, T30 + pepsin (1 mg/ml), 2 uU enzyme, pH 3” value was 70% residual; the “residual intact 33-mer (1-33) by HPLC-MS, T30, 2 uU enzyme, pH 3” value was determined as 50% residual. In addition, in the data set with 33-mer gliadin peptide [2], the “residual intact 33-mer (1-33) by HPLC-MS, T2h + pepsin (1 mg/ml), 2 uU enzyme, pH 3” value stood at 30% residual and the “residual intact 33-mer (1-33) by HPLC-MS, T2h, 2 uU enzyme, pH 3” value is given as 20% residual.

B2: endopep-140 (protein)
chain: MPDLPTQRRSPRRSRRPAVLARLAGLRVGALVLALAVTTLTLISMPSANAAPAKPVVPHAKASSPTAQGQHPTSRVCRTPGRANEMTCLAMVRDDVIGPKGVQANDAPAGFGPADLLNAYNLPSAGSTETVAIVDAFDNPNAEADLGVYRQQYGLPACTTANGCFKKIDQRGGTSYPPPDAGWAGEIALDIDMVSAICPTCKILLVEADDNYMDNLGTAVNQAVSQGAKFVSNSYGGSEGSDEGQADDAYFHHDGVAITASSGDSGYGASYPAASPYVTSVGGTSLAKDTSSSRGWTESTWNGAGSGCSAYETKPSFQKDTGCARRTIADVSAVADPNTGVAVYNGGWHVYGGTSVSAPIIASVYALGGAPAAGSAPNSFPYDHPADLNDVTSGSNGSCSPAYLCTAGTGYDGPTGLGTPNGIAAFRSGPHAVVTGTVTDGTAPLASAQVKAGDVTATTDGQGHYTLSVPPGTYDVSASKFGYTGKTISGVQVADGQTVTEDFALTAKARVDVSGLVRDGSGHGWPVYATVRVKDQPTAVAYTDPKTGRYTLSLPTDDTYTLQVDPLYPGYTQDSHDVTVTSADVVHDVNVAVDQTTCSAPGYSYHYAGATQPFDGTTAPAGWTVDDKVGNGQTWVFNDPGSRGNKTGGTGGFAVIDSDHYGSGNTQDSTLFSPVTDFSARTHPILSFRSDWYGYTGQAGDLDLSVDGGTTWTNLKHYTASERGPRTETMDLSAAAGKSAVQVRFHFTGKFGYYWQVDDVFLGDRTCDPTSGGLVVGQVTDANTGAGVAGATVTSVDRPAEHATSAATPDDPNLGDGLFWMFSSVTGSHKFTATAGNYDSHDVTVNVAANWATAADIALSAPRLTVTPGAISKTVGWQKAATAALTLKNTGTSPVTAKIGEQPGGSTTATAGAPLQRVKGDFASGRLQQGKASGAKAGVTPYAPPWTAIADYASPIMDNGAVALNGKIYSVAGVDGANVLNKAYAYDPGTQAWTAIAPLATGREAPQATTTGGKLYVTGGWGSTGAAVAKTEIFDPSSGAWSAGADNPKPYAGSGAAVLDGKIYVVGGCLATCGTKDVQVYDPAANSWSSGPAYPENTAWLGCAGIDGKLYCAGGSAAASTKHGYVLDPASGTWSPIADLPIDLWAMGYSAANGKLIVSGGVTNGASTLTNQGFAYDPSANSWTALPNSNNALYRGASACGFYKIGGSLGQFNAVKSGEVLPGYDQCASTADVPWLSEDKTEVTIQPGQSVKVNVTLDANVPAITQPGTYTAQLTVGAKTPYAIPPVAVTMTVNPPGTWGKITGTLTGAGCTGSPAPLTGATLQIDSWAASYTLKTDKNGQYALWLDVRNNPLTLIAAKDGWAPQTRNVKITKLTSTTADFTLKPDHTCS
As for B2, the “proteolysis of gliadin, SDS-PAGE, 5 uU enzyme, pH 3, 37 C” value with gliadin (Sigma G3375) is “cleaved ... into small peptides to almost complete digestion in 2 hours”. In the data set with 33-mer gliadin peptide [2], the “33-mer disappearance by HPLC-MS, 8 uU enzyme, 2 h, pH 3” value is given as “complete 33-mer disappearance after 2 h at pH 3 (not shown)”; the “residual intact 33-mer (1-33) by HPLC-MS, T0” value came out at 100% residual; the “residual intact 33-mer (1-33) by HPLC-MS, T30 + pepsin (1 mg/ml), 4 uU enzyme, pH 3” value came out at 70% residual; the “residual intact 33-mer (1-33) by HPLC-MS, T30, 4 uU enzyme, pH 3” value is reported as 50% residual. Further, in the data set with 33-mer gliadin peptide [2], the “residual intact 33-mer (1-33) by HPLC-MS, T2h + pepsin (1 mg/ml), 4 uU enzyme, pH 3” value is on record as 45% residual and the “residual intact 33-mer (1-33) by HPLC-MS, T2h, 4 uU enzyme, pH 3” value is given as 20% residual.
